The values that follow come from patent US9034341B2, “Control of RAGE fusion protein glycosylation and RAGE fusion protein compositions” (TransTech Pharma, LLC, priority 2009, dated 2015).

In one assay the target is T1, S100b (Bos taurus, UniProt P02638).
T1 construct: purchased Calbiochem 559290
T1 sequence (P02638 1-92): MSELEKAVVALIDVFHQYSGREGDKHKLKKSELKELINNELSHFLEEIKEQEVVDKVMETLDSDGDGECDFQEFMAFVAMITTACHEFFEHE
Kind of assay: S100b binding ELISA. The following applies: for Relative binding compared to control: binding to S100b relative to S1 control (untreated sRAGE-Ig). On the procedure:
Peak fraction collection for S100b binding assay: sRAGE-Ig fusion protein samples were concentrated to 4.0 mg/mL using a 10K Amicon Ultra filtration column (Millipore, Bedford, Mass.) and then separated under the reversed-phase conditions for glycan site occupancy as described above. Three fractions representing the site occupancy variants of sRAGE-Ig were collected as triply glycosylated (fraction one, F1), doubly glycosylated (fraction two, F2), and aglycosylated (fraction three, F3). The collected samples were concentrated and exchanged into a stabilizing buffer. Protein concentration of the fraction samples was determined by 280 nm absorbance with a DU 650 spectrophotometer (Beckman Coulter, Fullerton, Calif.) before subjecting the protein to the S100b ELISA binding assay.
(§1) S100b binding ELISA: An ELISA assay plate was coated with 100 μL/well of 20 μg/mL S100b protein (Cat. No. 559290, Calbiochem, Gibbstown, N.J.) in coating buffer (Tris buffered saline [TBS], pH8.0, with 5 mM CaCl2) overnight at 4° C. The plate was then washed three times with blocking buffer (TBS pH8.0, with 5 mM CaCl2, 0.05% Tween20, and 1% bovine serum albumin [BSA]), and blocked with the blocking buffer for 1-1.5 hr. sRAGE-Ig fusion samples were prepared in a separate dilution plate, the highest concentration was 10 μg/mL in blocking buffer, with 1:4 serial dilution in blocking buffer down to 2.4 ng/mL. After blocking, the assay plate was washed with the blocking buffer and 100 μL of the samples were transferred from the dilution plate to the assay plate. The assay plate was incubated at room temperature for 2.5 hr. The assay plate was then washed three times with the blocking buffer, with 1 min soaking time between the washes. The horseradish peroxidase conjugated goat anti-human IgG (Cat. No. A2290, Sigma, St. Louis, Mo.) was added to the plate with 100 μL/well at 1:2500 dilution in the blocking buffer. The plate was incubated for 1 hr at room temperature. The assay plate was then washed three times with the blocking buffer again, and 100 μL 3,3′,5,5′-tetramethylbenzidine (TMB; Cat. No. 34022, Pierce, Rockford, Ill.) was added to each well and the plate was incubated for 8 minutes at room temperature. 100 μL of 1M H2SO4 was then added to each well, the plate was shaken and read at 450 nm on a microplate reader.
In general terms: An ELISA detects its analyte on a solid surface through an enzyme-linked reagent.

In assay [1] the test system is human Aβ peptides (Aβ1-40, Aβ1-28). Kind of assay: Aβ peptide binding ELISA. The settings on record: for Relative binding compared to control: binding to Abeta relative to S1 control. On the procedure: as §1
Assay for Aβ peptide binding activities: Briefly, two human Aβ peptides were tested: Aβ1-40 (Catalogue# A-1153-2, Rpeptide), and Aβ1-28 (Catalogue#24232, AnaSpec). The plates were coated by 20 μg/mL peptide in 1% NH4OH overnight at 4° C. The plate was then washed with blocking buffer (TBS pH8.0, 0.05% Tween20, and 1% BSA) and blocked for 1 hr at room temperature. All the other steps were performed essentially as described previously herein for S100b binding assay, supra.

The mark [2] stands for this setting: versus unfractionated untreated S1.

Sequence of human Aβ peptides (Aβ1-40, Aβ1-28) (P05067 672-699 limits assumed): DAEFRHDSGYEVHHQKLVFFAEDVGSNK

B1: S1F2: sRAGE-Ig fraction from untreated cells, 2-glycan occupancy (protein)
chain: QNITARIGEPLVLKCKGAPKKPPQRLEWKLNTGRTEAWKVLSPQGGGPWDSVARVLPNGSLFLPAVGIQDEGIFRCQAMNRNGKETKSNYRVRVYQIPGKPEIVDSASELTAGVPNKVGTCVSEGSYPAGTLSWHLDGKPLVPNEKGVSVKEQTRRHPETGLFTLQSELMVTPAPGGDPRPTFSCSFSPGLPRHRALRTAPIQPRVWEPVPLEEVQLVVEPEGGAVAPPSVFLFPPKPKDTLMISRTPEVTCVVVDVSHEDPEVKFNWYVDGVEVHNAKTKPREEQYNSTYRVVSVLTVLHQDWLNGKEYKCKVSNKALPAPIEKTISKAKGQPREPQVYTLPPSRDELTKNQVSLTCLVKGFYPSDIAVEWESNGQPENNYKTTPPVLDSDGPFFLYSKLTVDKSRWQQGNVFSCSVMHEALHNHYTQKSLSLSPGK
Turning to B1, the “Relative binding compared to control” value in the assay with S100b worked out at 173%; in assay [1], 170%.

B2: S2F3: sRAGE-Ig fraction from TMYCN treated cells, 0-glycan occupancy (aglycosylated variant) (protein)
chain: B1 chain
modifications: non-natural residues
As to B2, in the assay with S100b (versus S1F1), the “fold increase in binding to S100b compared to fully occupied 3-glycan version” value is reported as “ten-fold”. Besides, the “fold increase in binding to S100b compared to S1 control” value with S100b (setting [2]) is “five-fold”. The “fold increase in binding to Abeta compared to fully occupied 3-glycan version” value in assay [1] (versus S2F1) is listed as “six-fold”. Further, in assay [1] (setting [2]), the “fold increase in binding to Abeta compared to S1 control” value is recorded as “three-fold”.

B3: S2F2: sRAGE-Ig fraction from TMYCN treated cells, 2-glycan occupancy (protein)
chain: B1 chain
B3: the “Relative binding compared to control” value is listed as 180% with S100b and 238% in assay [1].

B4: S2F1: sRAGE-Ig fraction from TMYCN treated cells, 3-glycan occupancy (protein)
chain: B1 chain
Take B4: the “Relative binding compared to control” value with S100b turned out to be 20%; in assay [1] it was 49%.

B5: S1F1: sRAGE-Ig fraction from untreated cells, 3-glycan occupancy (protein)
chain: B1 chain
For the molecule B5, the “Relative binding compared to control” value was 46% with S100b and 102% in assay [1].
